pKd: −log10 of the molar value.
Molecular target: Purified β-actin (Cytoskeleton) (UniProt P60709)
Test: SPR

## GST-tagged Myo1c neck plus tail (domain or fragment)
  pKd: > 5.70

Reference: PMC3392929
